One assay deals with GPR56 (Mus musculus) (UniProt Q8K209). Conditions: cited from earlier work.
Assay [1] addresses T1, human recombinant transglutaminase 2 (TG2), wild type (human, UniProt P21980 1-687).
T1 construct: transglutaminase 2, human; also called native TG2; wild type TG2; source: E. coli BL21(DE3pLysS), purified to homogeneity
T1 sequence (looked up): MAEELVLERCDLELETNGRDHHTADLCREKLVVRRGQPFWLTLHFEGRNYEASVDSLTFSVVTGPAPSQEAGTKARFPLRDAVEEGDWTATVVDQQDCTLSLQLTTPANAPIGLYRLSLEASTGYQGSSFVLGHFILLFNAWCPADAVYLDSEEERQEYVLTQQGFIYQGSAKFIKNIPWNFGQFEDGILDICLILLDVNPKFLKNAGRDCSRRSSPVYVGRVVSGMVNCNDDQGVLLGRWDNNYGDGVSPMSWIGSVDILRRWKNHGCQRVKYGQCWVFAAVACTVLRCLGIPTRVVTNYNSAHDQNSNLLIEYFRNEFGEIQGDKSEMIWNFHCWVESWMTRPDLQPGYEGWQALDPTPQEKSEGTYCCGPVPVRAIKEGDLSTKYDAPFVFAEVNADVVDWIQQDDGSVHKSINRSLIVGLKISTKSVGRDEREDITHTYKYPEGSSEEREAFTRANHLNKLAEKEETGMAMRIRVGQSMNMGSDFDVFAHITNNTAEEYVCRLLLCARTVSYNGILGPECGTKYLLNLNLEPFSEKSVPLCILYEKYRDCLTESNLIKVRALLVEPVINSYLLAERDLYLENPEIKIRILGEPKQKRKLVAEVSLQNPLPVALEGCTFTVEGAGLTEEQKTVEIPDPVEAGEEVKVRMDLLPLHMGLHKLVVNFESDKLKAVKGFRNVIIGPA
Description: pull-down; N-GPR56-Fc fusion proteins from CHO conditioned medium held on protein G-Sepharose beads, washed (20 mM Tris/HCl, pH 7.4, 150 mM NaCl), incubated with TG2 (50 µg/mL) in 50 µL overnight at 4 °C; eluted with 0.1 M glycine/HCl pH 2.5; Western blot. The conditions noted are these: both partners purified.

The next assay deals with T2, wild type murine TG2 (murine, UniProt P21981 1-686).
T2 construct: transglutaminase 2, mouse, wild type; construct not described
T2 sequence (looked up): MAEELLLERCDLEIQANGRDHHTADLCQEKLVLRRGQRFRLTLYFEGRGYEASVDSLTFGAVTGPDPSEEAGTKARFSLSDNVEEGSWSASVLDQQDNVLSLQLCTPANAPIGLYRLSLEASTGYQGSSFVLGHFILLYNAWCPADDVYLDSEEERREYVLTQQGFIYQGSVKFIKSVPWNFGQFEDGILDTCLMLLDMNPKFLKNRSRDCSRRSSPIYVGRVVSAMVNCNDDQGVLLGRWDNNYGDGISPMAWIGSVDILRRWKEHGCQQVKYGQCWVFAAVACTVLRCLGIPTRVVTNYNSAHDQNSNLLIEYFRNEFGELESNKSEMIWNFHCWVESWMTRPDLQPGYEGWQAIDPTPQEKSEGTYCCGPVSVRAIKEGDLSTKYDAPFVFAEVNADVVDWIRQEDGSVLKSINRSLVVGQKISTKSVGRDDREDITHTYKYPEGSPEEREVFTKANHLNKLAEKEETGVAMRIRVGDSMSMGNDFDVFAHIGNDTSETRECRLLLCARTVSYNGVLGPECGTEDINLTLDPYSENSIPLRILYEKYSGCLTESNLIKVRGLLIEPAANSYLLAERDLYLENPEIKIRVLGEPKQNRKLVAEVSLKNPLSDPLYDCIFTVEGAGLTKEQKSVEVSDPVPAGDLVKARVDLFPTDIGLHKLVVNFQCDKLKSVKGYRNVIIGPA
Described as above. Conditions: both partners purified.

Assay [2] concerns the target T3, human C230-A TG2 mutant (oxidation resistant mutant of TG2) (human, UniProt P21980 1-687, C230A).
T3 construct: transglutaminase 2, human, with C230A; source: E. coli BL21(DE3pLysS), purified to homogeneity
T3 sequence (looked up): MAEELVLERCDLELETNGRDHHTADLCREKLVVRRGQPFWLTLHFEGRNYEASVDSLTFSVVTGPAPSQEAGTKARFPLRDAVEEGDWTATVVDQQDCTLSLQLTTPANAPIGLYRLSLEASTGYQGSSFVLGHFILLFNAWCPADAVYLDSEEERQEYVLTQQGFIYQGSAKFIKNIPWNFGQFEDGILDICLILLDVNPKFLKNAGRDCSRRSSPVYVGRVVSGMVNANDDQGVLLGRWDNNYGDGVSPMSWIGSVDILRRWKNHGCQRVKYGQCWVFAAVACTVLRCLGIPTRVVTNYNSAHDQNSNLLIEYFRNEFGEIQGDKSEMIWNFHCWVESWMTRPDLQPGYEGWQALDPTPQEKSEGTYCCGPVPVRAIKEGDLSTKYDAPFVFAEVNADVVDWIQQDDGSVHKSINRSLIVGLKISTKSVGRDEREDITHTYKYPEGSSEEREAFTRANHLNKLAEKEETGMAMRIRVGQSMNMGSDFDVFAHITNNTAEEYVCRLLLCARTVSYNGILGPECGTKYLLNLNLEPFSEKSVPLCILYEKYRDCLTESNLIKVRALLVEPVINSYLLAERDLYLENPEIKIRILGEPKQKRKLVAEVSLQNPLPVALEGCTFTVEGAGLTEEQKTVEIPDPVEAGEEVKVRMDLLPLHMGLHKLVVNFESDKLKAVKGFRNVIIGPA
The assay is described as above. The conditions noted are these: both partners purified.

For assay [3], the target named is T4, C277S-TG2 (catalytically deficient TG2 C277S mutant) (human, UniProt P21980 1-687, C277S).
T4 construct: transglutaminase 2 with C277S; the results call the analyte of the kinetic studies human TG2; Incubated with 10 mM DTT for 10 min and re-buffered into HBS before SPR; source: E. coli BL21(DE3pLysS), purified to homogeneity
T4 sequence (looked up): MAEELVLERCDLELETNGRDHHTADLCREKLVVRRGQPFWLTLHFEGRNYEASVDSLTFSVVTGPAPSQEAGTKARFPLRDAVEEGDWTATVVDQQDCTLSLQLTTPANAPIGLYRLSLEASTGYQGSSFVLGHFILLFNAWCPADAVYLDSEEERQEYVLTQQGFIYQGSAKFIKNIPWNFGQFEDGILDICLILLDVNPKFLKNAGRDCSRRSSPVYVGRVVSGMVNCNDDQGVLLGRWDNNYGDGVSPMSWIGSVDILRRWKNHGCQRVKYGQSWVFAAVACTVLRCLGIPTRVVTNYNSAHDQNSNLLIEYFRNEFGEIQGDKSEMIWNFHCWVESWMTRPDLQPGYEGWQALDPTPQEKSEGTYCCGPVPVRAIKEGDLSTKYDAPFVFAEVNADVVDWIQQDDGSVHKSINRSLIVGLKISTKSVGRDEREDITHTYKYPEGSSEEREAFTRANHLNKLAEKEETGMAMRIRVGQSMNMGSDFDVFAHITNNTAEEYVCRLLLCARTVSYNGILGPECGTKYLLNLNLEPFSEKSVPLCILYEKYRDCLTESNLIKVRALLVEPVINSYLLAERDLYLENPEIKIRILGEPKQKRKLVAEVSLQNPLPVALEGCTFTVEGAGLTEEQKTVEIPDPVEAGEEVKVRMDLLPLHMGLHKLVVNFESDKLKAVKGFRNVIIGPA
Description: SPR; BIAcore T200, protein A sensor chip; 270-320 RU of 1-382 N-GPR56-Fc fusion protein, or conditioned medium containing it (1:10 in HBS), captured; C277S-TG2 (DTT treated) as analyte, 8 serial dilutions; 25 °C, HBS (10 mM Hepes pH 7.4, 0.15 M NaCl, 3 mM EDTA, 0.005% P20), 30 µL/min; with 20 mM Ca2+; equilibrium analysis. The conditions noted are these: both partners purified.

Chain of GPR56 (Mus musculus) (Q8K209 26-382): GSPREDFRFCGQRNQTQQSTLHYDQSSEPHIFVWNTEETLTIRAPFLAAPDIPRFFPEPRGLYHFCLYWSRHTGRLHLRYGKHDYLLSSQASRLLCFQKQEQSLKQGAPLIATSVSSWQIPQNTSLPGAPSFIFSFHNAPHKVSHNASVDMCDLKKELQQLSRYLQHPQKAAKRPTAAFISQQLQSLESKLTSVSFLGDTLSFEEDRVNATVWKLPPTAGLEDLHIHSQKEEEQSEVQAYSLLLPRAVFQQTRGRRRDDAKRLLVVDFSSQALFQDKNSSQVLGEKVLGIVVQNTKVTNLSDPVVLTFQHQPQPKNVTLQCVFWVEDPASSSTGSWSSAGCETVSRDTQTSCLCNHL

With TG2 (from UniProt P21981), the Kd in the assay with GPR56 (Mus musculus) was 330 nM.

B1: 1-382 N-GPR56-Fc fusion protein (Fc fusion, human, UniProt Q9Y653 26-382, looked up)
chain: RGHREDFRFCSQRNQTHRSSLHYKPTPDLRISIENSEEALTVHAPFPAAHPASRSFPDPRGLYHFCLYWNRHAGRLHLLYGKRDFLLSDKASSLLCFQHQEESLAQGPPLLATSVTSWWSPQNISLPSAASFTFSFHSPPHTAAHNASVDMCELKRDLQLLSQFLKHPQKASRRPSAAPASQQLQSLESKLTSVRFMGDMVSFEEDRINATVWKLQPTAGLQDLHIHSRQEEEQSEIMEYSVLLPRTLFQRTKGRSGEAEKRLLLVDFSSQALFQDKNSSQVLGEKVLGIVVQNTKVANLTEPVVLTFQHQLQPKNVTLQCVFWVEDPTLSSPGHWSSAGCETVRRETQTSCFCNHL
notes: signal peptide in the construct; Fc retains the cysteine residues for dimerization; The limits 1-382 are printed for the SPR; also called human N-GPR56; source: CHO cells, transfected; conditioned medium, purified on protein G-Sepharose, or conditioned medium used directly; not shown: Fc (human IgG1 heavy chain, amino acids 3-236), C-terminal, kept
Consider B1, for which the binding result (in assay [1]; in the assay with wild type murine TG2; in assay [2]) was “binds” each time. Also, the Kd in assay [3] was about 1200 nM.
